Data from patent US8841421B2, “S100A9 interaction screening method” (Active Biotech, AB, priority 2007, dated 2014).
Each block holds one molecule with its values, some of them ahead of it.

Key:
[1] = target: T1, S100A9 binding to immobilized RAGE (Homo sapiens, UniProt P06702); assay: Biacore competition assay: displacement of S100A9 binding to immobilized RAGE; conditions: for IC50, displacement of S100A9 binding to RAGE: 200 nM S100A9, log-logit plot, linear regression
T1 construct: made in house; host or cells: E. coli
T1 sequence (P06702 1-114): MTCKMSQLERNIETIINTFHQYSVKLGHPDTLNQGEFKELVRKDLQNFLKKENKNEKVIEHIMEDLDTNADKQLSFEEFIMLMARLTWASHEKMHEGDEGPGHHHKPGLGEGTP
Procedure: Sensorgrams from top to bottom represent: S100A9 without and with 15.625, 31.25, 62.5, 125, 250, 500 and 1000 μM compound A as competitor and from sample buffer without S100A9 and competitor. In (B), binding data is plotted as an inhibition curve (♦) and the response for S100A9 in the absence of competitor (dotted line). In (C), binding data is plotted after log-logit transformation. […] Arrows in (A) indicate start of the association phase (1), i.e. injection of S100A9±competitor, and dissociation phase (2), where running buffer is pumped over the surface. Injection time, flow rate and regeneration conditions were as in FIG. 1.
Binding analysis was performed using the “surface plasmon resonance” (SPR) technology with a Biacore 3000™ system. This technology allows analysis of an interaction between proteins and small molecules in a real-time and label-free manner. A protein or low-molecular weight compound is injected over a surface (a CM5 sensor chip) with a covalently coupled ligand and the signal produced, expressed as resonance units (RU), is directly proportional to the number and mass of the molecule interacting with the ligand on the surface. Immobilization, regeneration scouting, surface performance tests and binding studies were conducted basically according to the instructions by the manufacturer. Kinetic evaluation of binding data was carried using the BIAevaluation Software Version 3.2 (Biacore AB). Optimization of conditions for immobilization and binding analysis is carried out for each interaction to be studied. […]
Recombinant human RAGE was obtained from R&D Systems (cat. No. 1145-RG) as a fusion protein of the extracellular domain of RAGE, comprising a.a. […] The chimeric protein was expressed in the mouse myleoma cell line NSO as a disulfide-linked homo-dimeric protein with a calculated molecular mass of 61 kDa. […]
Recombinant S100A9, expressed as the full-length sequence of native protein in E. coli was obtained using a four-step purification protocol. […]

human S100A9 = target: T2, human S100A9 (Homo sapiens, UniProt P06702); assay: Biacore competition assay: S100A9 binding to immobilized amino-linked Compound A; conditions: sigmoidal dose-response (variable slope) fit
T2 construct: made in house; host or cells: E. coli
T2 sequence (P06702 1-114): T1 sequence (P06702 1-114)
Procedure: The anti-S100A9 mAb 43/8 ability to block the binding of human S100A9 to amino-linked Compound A was measured by BIACORE™ direct binding assay. The assay was performed by coating amino-linked Compound A on a CM5 chip using standard amine coupling. S100A9 at 100 nM was injected over immobilized Compound A in the absence or presence of mAb 43/8 for 3 min at a flow rate of 30 μl/min in sample buffer (HBS-P buffer containing 1 mM Ca^2+ and […]) (1; association phase), followed by injection of sample buffer (2; dissociation phase).
Responses at late association phase, obtained after injection of 100 nM S100A9, pre-incubated for at least 1 h at room temperature ±12.5-500 nM monoclonal anti-S100A9 antibody, over immobilized Compound A were plotted versus concentration of anti-S100A9 antibody.
Samples were injected for 3 min at 30 μl/min in HBS-P buffer over amine coupled RAGE,TLR4/MD-2 and Compound A. Binding +/− competitor was calculated as response at lateassociation phase or by fit of sensorgrams to a 1:1 Langmuir model. ICso values were calculated by fitting data to a sigmoidal dose-response (variable slope) model in Graph-Pad Prism.

[2] = target: T3, S100A9 binding to immobilized human TLR4/MD-2 complex (Homo sapiens, UniProt P06702); assay: Biacore competition assay: displacement of S100A9 binding to immobilized TLR4/MD-2; conditions: sigmoidal dose-response (variable slope) fit
T3 construct: made in house; host or cells: E. coli
T3 sequence (P06702 1-114): T1 sequence (P06702 1-114)
Procedure: Sensograms from top to bottom represent: S100A9 without and with 7.8125, 15.625, 31.25, 62.5, 125, 250, 500 and 1000 μM compound A as competitor. In (B), binding data is plotted as an inhibition curve. […] Arrows in (A) indicate start of the association phase (1), i.e. injection of S100A9±competitor, and dissociation phase (2), where running buffer is pumped over the surface. Injection time, flow rate and regeneration conditions were as in FIG. 1. HBS-P containing 1 mM CaCl2 and 10 μM ZnCl2 (Robinson et al. 2002) was used as running and sample buffer.
Binding analysis was performed using the “surface plasmon resonance” (SPR) technology with a Biacore 3000™ system. This technology allows analysis of an interaction between proteins and small molecules in a real-time and label-free manner. A protein or low-molecular weight compound is injected over a surface (a CM5 sensor chip) with a covalently coupled ligand and the signal produced, expressed as resonance units (RU), is directly proportional to the number and mass of the molecule interacting with the ligand on the surface. […]
(§1) Recombinant S100A9, expressed as the full-length sequence of native protein in E. coli was obtained using a four-step purification protocol. […] Buffer was changed to HBS-P using the Fast Protein Desalting Spin Columns and concentration determined in the BCA protein assay from Pierce with bovine albumin as standard. […]

human TLR4/MD-2 = target: T4, human TLR4/MD-2 (Homo sapiens, UniProt O00206+Q9Y6Y9); assay: Biacore direct binding of S100A9 to amine-coupled TLR4/MD-2; conditions: 1:1 Langmuir binding model
T4 construct: human TLR4 (Glu 24-Lys 631), and 10× histidines; human MD-2 (Glu 17-ASN 160), and 10× histidines; human CD33 signal peptide (Met 1-Ala 16) (N); purchased R&D Systems 3146-TN/CF; host or cells: mouse myeloma cell line NS0
Procedure: The TOLL-like receptor 4 was immobilized on the sensor chip. Binding to S100A9 was detected. […] Sensorgrams from bottom to top represent injection of sample buffer in the absence of S100A9, 100 and 200 nM S100A9 after subtraction of the signal in the reference flow cell. Injection time was 3 min at a flow rate of 30 μL/min and regeneration was performed with a 30 μl pulse of 3 mM EDTA in HBS-P buffer (HBS-EP) for 60 s. Arrows indicate injection of sample (1; association phase), running buffer (2; dissociation phase) and regeneration solution (3). HBS-P containing 1 mM CaCl2 and 10 μM ZnCl2 (Robinson et al. 2002) was used as running and sample buffer. An apparent dissociation constant of […], on- and off-rates of 3.9×10^4 l/Ms and 3.5×10^−4 l/s, and maximal binding at 1.8×10^3 RU were calculated after fitting data to a 1:1 Langmuir binding model (Chi2 6.8).
(§2) Binding analysis was performed using the “surface plasmon resonance” (SPR) technology with a Biacore 3000™ system. This technology allows analysis of an interaction between proteins and small molecules in a real-time and label-free manner. A protein or low-molecular weight compound is injected over a surface (a CM5 sensor chip) with a covalently coupled ligand and the signal produced, expressed as resonance units (RU), is directly proportional to the number and mass of the molecule interacting with the ligand on the surface. Immobilization, regeneration scouting, surface performance tests and binding studies were conducted basically according to the instructions by the manufacturer. Kinetic evaluation of binding data was carried using the BIAevaluation Software Version 3.2 (Biacore AB). Optimization of conditions for immobilization and binding analysis is carried out for each interaction to be studied. A biosensor analysis cycle consists of: (i) injection of S100A9 over the RAGE surface for 3 min (association phase) or (i) injection of S100A9 over the TLR4/MD-2 surfaces, in the absence or presence of 100 ng/mL LPS, for 3 min (association phase); (ii) injection of running buffer for 2.5 min (dissociation phase); (iii) injection of a 30 s pulse of 10 mM glycine-HCl, pH 2.0-2.125 (regeneration phase); and (iv) injection of running buffer for 2 min (stabilization after regeneration) at a flow rate of 30 μl/min.
Recombinant human TLR4/MD-2 was obtained from R&D Systems (cat. no. 3146-TN/CF) as a non-covalently associated protein of the respective extracellular domains. […]
as §1

immobilized RAGE = target: T5, immobilized RAGE (Homo sapiens, UniProt Q15109); assay: Binding of S100 proteins to immobilized RAGE (Biacore); conditions: 200 nM protein
T5 construct: the extracellular domain of RAGE, comprising a.a; 1-344; purchased R&D Systems 1145-RG; host or cells: mouse myeloma cell line NS0
Procedure: Responses were obtained as Req values after fit of data to a 1:1 binding model or as the signal at late association phase (t˜235 s). Experimental conditions were as in FIG. 1. Signals were not corrected for mass contribution.
In vivo, S100A9 usually forms hetero-dimeric complexes with S100A8.
as §2
Recombinant human RAGE was obtained from R&D Systems (cat. No. 1145-RG) as a fusion protein of the extracellular domain of RAGE, comprising a.a. 1-344, and the Fc region of human IgG1 via a peptide linker. The chimeric protein was expressed in the mouse myleoma cell line NSO as a disulfide-linked homo-dimeric protein with a calculated molecular mass of 61 kDa. Prior to covalent coupling to the sensor chip, buffer was changed to a standard Biacore buffer (10 mM Hepes, 0.15 M NaCl, pH 7.4, containing 0.005% v/v Surfactant P20; HBS-P) using Fast Protein Desalting Micro-Spin Columns (Pierce). RAGE was diluted in an immobilization buffer shown to give sufficient pre-concentration and then covalently coupled using the “Aim at immobilization level” function in the Biacore Wizard to obtain various coupling densities. Activity of immobilized RAGE was tested by injecting a specific anti-human RAGE monoclonal antibody over the surface. Due to extensive glycosylation of RAGE relative to that of the Fc domain and a higher mass of the latter, it was also assumed that chimeric RAGE/Fc will be coupled predominantly via the Fc domain and result in a semi-oriented coupling to the sensor chip. HBS-P, with a final concentration of 1 mM CaCl2 and 10 μM ZnCl2, was used as sample and running buffer throughout the study. For regeneration of the surface after each cycle, a pulse of 10 mM glycine-HCl, pH 2.125, was used. To determine optimal zinc concentration for binding of S100A9 protein to RAGE, the interaction was allowed to take place at a fixed calcium concentration (1 mM) and with the zinc concentration titrated from zero to ten μM.

T4 sequence (O00206 24-631): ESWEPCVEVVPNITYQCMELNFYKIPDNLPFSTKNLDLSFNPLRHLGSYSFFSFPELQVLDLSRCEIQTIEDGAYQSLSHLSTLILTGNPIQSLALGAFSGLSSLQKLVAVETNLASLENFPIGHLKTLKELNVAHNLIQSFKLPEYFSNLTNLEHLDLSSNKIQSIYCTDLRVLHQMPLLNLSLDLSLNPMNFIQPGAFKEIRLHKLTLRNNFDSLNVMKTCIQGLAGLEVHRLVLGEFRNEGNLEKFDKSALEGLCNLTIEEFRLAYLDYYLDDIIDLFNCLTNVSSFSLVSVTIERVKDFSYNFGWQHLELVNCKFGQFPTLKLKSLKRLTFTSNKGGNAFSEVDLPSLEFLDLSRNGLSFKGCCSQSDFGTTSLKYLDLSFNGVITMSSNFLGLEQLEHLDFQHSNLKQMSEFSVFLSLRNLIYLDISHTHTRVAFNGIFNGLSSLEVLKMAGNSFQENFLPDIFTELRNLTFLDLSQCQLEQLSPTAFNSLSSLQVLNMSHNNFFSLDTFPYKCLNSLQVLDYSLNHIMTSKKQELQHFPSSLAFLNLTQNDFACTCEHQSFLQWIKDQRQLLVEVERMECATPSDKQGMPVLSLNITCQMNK
T4 sequence (Q9Y6Y9 17-160): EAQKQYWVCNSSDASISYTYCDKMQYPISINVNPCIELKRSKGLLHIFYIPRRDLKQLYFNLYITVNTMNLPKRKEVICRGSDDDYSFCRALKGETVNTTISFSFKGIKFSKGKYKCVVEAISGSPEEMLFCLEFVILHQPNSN
T5 sequence (Q15109 23-344): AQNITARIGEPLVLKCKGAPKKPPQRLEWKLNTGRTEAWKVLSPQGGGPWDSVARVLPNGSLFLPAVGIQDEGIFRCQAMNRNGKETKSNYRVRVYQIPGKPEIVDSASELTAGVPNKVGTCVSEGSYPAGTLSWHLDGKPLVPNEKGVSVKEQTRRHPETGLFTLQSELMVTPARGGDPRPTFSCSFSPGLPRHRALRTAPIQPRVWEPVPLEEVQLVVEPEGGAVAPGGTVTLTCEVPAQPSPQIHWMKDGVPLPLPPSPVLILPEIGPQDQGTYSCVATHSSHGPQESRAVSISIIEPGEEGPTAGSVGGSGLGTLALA

- IC50, displacement of S100A9 binding to RAGE [1]: 0.0404 µg/mL
Molecule: heparin

- IC50 ([1]; sigmoidal dose-response (variable slope) fit): 399 µM
- IC50 (human S100A9): 873 µM
- IC50 [2]: 458 µM
Molecule: COc1ccc(C2CNC(=O)C2)cc1OC1CCCC1 (racemic) [Rolipram, (+/−)-4-(3-cyclopentyloxy-4-methoxyphenyl)-2-pyrrolidone]

- maximal binding (human TLR4/MD-2): 1.8×10^3 RU
- off-rate (human TLR4/MD-2): 0.00035 L/s
- on-rate (human TLR4/MD-2): 3.9×10^4 l/Ms
- Kd (human TLR4/MD-2; read-out: apparent dissociation constant): 0.086 µM
- binding to RAGE relative to next group of RAGE binders (AnxII, S100A12, S100A8/9) (immobilized RAGE): more than 10 fold
Molecule: S100A9: recombinant S100A9, full-length sequence of native protein expressed in E. coli; SEQ ID NO: 1 [Compound S100A9]

- binding to RAGE (in words) (immobilized RAGE): weak or no binding
Molecule: S100B: S100 protein, putative RAGE ligand [Compound S100B]

- IC50, displacement of S100A9 binding to RAGE [1]: 0.0257 µg/mL
Molecule: heparan sulfate

- binding to RAGE (in words) (immobilized RAGE): significantly lower binding
Molecule: S100A8/9 hetero-dimer: hetero-dimeric complex of S100A8 and S100A9

- binding to RAGE (in words) (immobilized RAGE): weak or no binding
Molecule: S100A1: S100 protein, putative RAGE ligand [Compound S100A1]

- binding to RAGE (in words) (immobilized RAGE): weak or no binding
B1: S100P: S100 protein, putative RAGE ligand (protein, UniProt P25815 1-95, looked up)
Protein S100-P: MTELETAMGMIIDVFSRYSGSEGSTQTLTKGELKVLMEKELPGFLQSGKDKDAVDKLLKDLDANGDAQVDFSEFIVFVAAITSACHKYFEKAGLK

- binding to RAGE (in words) (immobilized RAGE): weak or no binding
B2: S100A12: S100 protein, putative RAGE ligand; purified from human granulocytes (protein)
chain: TKLEEHLEGIVNIFHQYSVRKGHFDTLSKGELKQLLTKELANTIKNIKDKAVIDEIFQGLDANQDEQVDFQEFISLVAIALKAAHYHTHKE
